Positions count from the first letter of the chain named. Names and notes keep the numbering of the source.
B1: native human heparin-binding protein (other)
chain: IVGGRKARPRQFPFLASIQNQGRHFCGGALIHARFVMTAASCFQSQNPGVSTVVLGAYDLRRRERQSRQTFSISSMSENGYDPQQNLNDLMLLQLDREANLTSSVTILPLPLQNATVEAGTRCQVAGWGSQRSGGRLSRFPRFVNVTVTPEDQCRPNNVCTGVLTRRGGICNGDGGTPLVCEGLAHGVASFSLGPCGRGPDFFTRVALFRDWIDGVLNNPGP
notes: also called HBP; hHBP
B2: [R23S,F25E]HBP (other)
chain: B1 chain with R23S, F25E
notes: Expressed in sf9 insect cells; also called [R23S,F25E]HBP mutant
B3: [G175Q]HBP (other)
chain: B1 chain with G175Q
notes: also called [G175Q]HBP mutant
B4: HBP mutant (G175N) (other)
chain: B1 chain with G175N

Legend:
[1] = molecular target: T1, bovine pancreatic trypsin inhibitor (bovine, UniProt P00974 36-93); assay: scintillation proximity assay with 125I-BPTI
[2] = molecular target: T1, bovine pancreatic trypsin inhibitor; assay: not described

Binder | binding result [1] | binding result [2]
B1 | binds | 
B2 | binds | 
B3 | no binding | 
B4 |  | no binding

— EP1674110A1 (NOVO NORDISK A/S, dated 2000)
